Results: paper PMC3528738

Target: MPERp (HIV-1 (HXBc2 isolate))
Test: cross-linking; peptides (10 µg) in solution incubated with 20 µM BS3 for 1 h at 37°C, TCA precipitation, Tricine SDS-PAGE; detection by Western blot with MAb2F5 or by NBD fluorescence in the gel

Chain of MPERp (peptide) (P03375 656-683): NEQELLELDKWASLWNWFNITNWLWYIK

Substance: MPERp (peptide)
- stoichiometry N: 2
